Source: US20240240160A1, “NOVEL OLIVETOL SYNTHASES FOR C[…]” (priority 2021, published 2024)

B1: AAX54693.1: Type-III PKS enzyme from Phalaenopsis hybrid cultivar (protein)
chain: MPTIESIKKAPRAHGFASILAIGKANPENFIEQCHYPDFYFRVTSSEHLVDLKEKFQRMCDRTAIRKRHFVWNEDLLTANPCLRTYMDKSLNIRQEVAIREIPKLGAEAATKAIQEWGQPKSSITHLIFCTTSGMDLPGADFQLTQILGLNPNVERVMLYQQGCFAGGTTLRLAKCLAESREGARVLVVCAETTTVVFRAPSEEHQDDLVTQALFADGASAVIVGVDPNEAAHERASFIIVSASQVLLPDSAGAIGGHVSEGGLTATLHRDVPQIVSKNVGKCLEEAFTPFGISDWNSIFWVPHAGGRAILDQVEERVGLKPEKLSVSRHVLAEYGNMSSVCVHFALDEMRKKSAKEAKATTGEGLEWGVLFGFGPGLTVETVVLHSVPI
modifications: Phalaenopsis hybrid cultivar; (1)..(390) AAX54693.1
B2: AFU07719.1: Type-III PKS enzyme from Paphiopedilum purpuratum (protein, listed as Paphiopedilum purpuratum)
chain: MPGLENRKKVEAPKRAEGLATILAIGRANPPNDMEQSTFPDFYFRVTNSEHLVSLKKKFERICEKTAIRRRHFVWNEEILNANPCLRTHMEPSLNVRQKIAVAEIPKLGAEAASRAIEEWGQPKSHITHLIFCTTSGMDLPGADYKLTRILGLNPNVQRVMLYQQGCFAGGTVLRLAKCFAESQKGARVLVVCSETTTVLVRAPSEDYQDDLVTQALFADGASALIVGADPDEEAKEQPIFTIVSATQVILPDSDGAIGGHLGEGGLTATLHRDVPLIISKNVSKCLEEAFGPLGISDWNSIFWAPHPGGRAILDQVEERVGLKPEKLWASRHVLAEYGNMSSVCVHFVLDEIRKRSTKEGKTTTGEGFDWGVLFGFGPGLTVETVILRSVPLN
modifications: (1)..(394) AFU07719.1
B3: XP_020704098.1: Type-III PKS enzyme from Dendrobium catenatum (protein, listed as Dendrobium catenatum)
chain: MPSLESIKKAPRADGFASILAIGRANPENFIEQSAYPDLFFRITNSEHLVDLKNKFKRICDKTAIRKRHFVWTEEFITANPCFSTFMDKSLNIRQEVAIREIPKLGAEAATKAIQEWGQPKSRITHLIFCTTSGMDLPGADYQLTQILGLNPNVERVMLYQQGCFAGGTTIRLAKCLAESRKGARVLVVCAETTTVLFRGPSEEHQDDLVTQALFADGASALIVGADPDEAADEHASFVIVSTSQVLLPDSAGAIGGHVSEGGLLATLHRDVPQIVSKNVGKCLEEAFTPLGISDWNSIFWVPHPGGRAILDQVEESVGLKPEKLFISRHVLAEYGNMSSVCVHFALDEMRKRSAKEGKATTGEGLEWGVLFGFGPGVTVETVILRSVPI
modifications: (1)..(390) XP_020704098.1
B4: PKA53998.1: Type-III PKS enzyme from Apostasia shenzhenica (protein, listed as Apostasia shenzhenica)
chain: MPGLQIISKASSRAADGLAAILAIGRANPPNSMDQSSYPEFYFRVMDSDHLVDLKKKFQRICERTAIRKRHFVWNEELLRDNPCLRTFMDSSLNVRQKVAVAEIPKLGAAAAERAIEEWGQPRSGITHLIFCTTSGMDLPGADYQLTKILGLNADVQRVMLYQQGCFAGGTVLRLAKVLAESRKGARVLVVCAETTTVLIRAPSVEHQDDLVTQALFADGASALIVGADPVEEVNERPLFSIISASQVILPDSDGAIGGHLGEGGLTATLHRDVPLIISKNVSKCLEDAFSPLGISDWNSIFWAPHPGGRAILDQVEERVGLKPEKMWASRHVLAEYGNMSSVCVHFVLDEMRKRSAKEGKPTTGEGLEWGVLFGFGPGLTVETVVLRSHPIN
modifications: (1)..(393) PKA53998.1
B5: AFU07718.1: Type-III PKS enzyme from Paphiopedilum micranthum (protein, listed as Paphiopedilum micranthum)
chain: MPGLENRKKVEAPIRAEGLATIMAIGRANPPNAMEQSTFPDFYFRVTNSEHLVGLKKKFQRICEKTAIRRRHFVWNEEILNANPCLRTHMEPSLNVRQKIAVAEIPKMGAEAASRAIEEWGQSKSRITHLIFCTTSGMDLPGADYQLTRILGLNPNVQRVMLYQQGCFAGGTVLRLAKCLAESQKGARVLVVCSETTAVLVRAPSEEYHDDLVTQALFADGASALIVGADPDEEAKERPIFTIVSTTQVILPDSDGAIGGHLGEGGLTATLHRDVPLIISKNVSKCLEEAFTPLGISDWNSIFWAPHPGGRAILDQVEERASLKPEKLWASRHVLTEYGNMSSVCVHFVLDEIRKRSAKEGKATTGEGFDWGVLFGFGPGLTVETVVLRSVPLN
modifications: (1)..(394) AFU07718.1
B6: XP_020591420.1: Type-III PKS enzyme from Phalaenopsis equestris (protein, listed as Phalaenopsis equestris)
chain: MPNMESIKKEDGLATIMAIGRALPPNSIDQNSFPDFYFRVHNSEHLMDLKNKFRRICERTAIRKRHFVWNEEVLKQNPCLRTFMEPSLNTRQEIVCSEIPKLGAEAARNAIREWGQPERSITHLIFCTTSGMNLPGADFEAAQILGLNHSVERVMLYQQGCFAGGTVLRLAKCLAESRRGARVLVICAESTTSLVRSPSREHQYDLIAQALFADGASALIIGTEPNAEAGERPIFSIFSTAQVTLPDSGDAIRGYLKEGGLIATLAKDVPLIISENIERCLQEAFGPLGISDWNSIFWAPHPGGRAILDGIEDKLGLKPEKLWAARHVLAEYGNMSSVCVHYILDEMRRRDVKNGKAPTGDGPEWGVLFGFGPGLTVETVVLRRLFL
modifications: (1)..(387) XP_020591420.1
B7: AHH25569.1: Type-III PKS enzyme from Bletilla striata (protein, listed as Bletilla striata)
chain: MPSLDSIKKAPRADGIASILAIGRANPDNIIEQSAYPDFYFRVTNSEHLVDLKKKFQRICEKTAIRKRHFVWNEEFLTSNPSFSTFMDKSLYVRQEVAIREIPKLGAKAATKAIEDWGQPKSRISHLIFCTTSGMDLPGADYQLTQILGLNPNVERLMLYEQGCFAGGTTLRLAKCLAESRKGARVLVVCAETTTVLFRAPSEEHQDDLVTQALFADGASALIVGADPDEAADERASFVIVSTSQVLLPDTAGAIGGHVSEGGLLATLHRDVPQIVTKNVGKCLEEAFTPFGISDWNSIFWVPHPGGRAILDQVEERVGLKPEKLSVSRHVLAEYGNMSSVCVHFALDEMRKRSANEGKPTTGEGLEWGVLFGFGPGLTVETVVLRSVPL
modifications: (1)..(390) AHH25569.1
B8: XP_020704102.1: Type-III PKS enzyme from Dendrobium catenatum (protein, listed as Dendrobium catenatum)
chain: MPSLESIKKAPRADGFASILAIGRANPENFIEQSAYPDLFFRITKSEHLVDLKNKFKRICDKTAIRKRHFVWTEEFITANPCFSTFMEKSLNIRQEVAIREIPKLGAEAAAKAIQEWGQPKSRITHLIFCTRSGMGLPGPDYQLTQILGLNPNVERVMIYQQGCFAGGTTLRLAKCLAESHKGARVLVVCAETSTVLFRAPSMEHQEDLVTQALFADGASALIVGADPDETADEHASFVIVSTSQVLLPESAGAIGGHVSEGGFLPMIHRDVPQIVSKNIGKCLEEAFTPLGIMDWNSIFWVPHPGGRAILDQLDERVGLKPEKLFISRHVLKEYGNMSSASVHFALDEMRKWSAKEGTTGEGLEWGVLFGFGPGVTVDTVVLRSVPI
modifications: (1)..(388) XP_020704102.1
B9: CAA10514.1: Type-III PKS enzyme from Bromheadia finlaysoniana (protein, listed as Bromheadia finlaysoniana)
chain: MASQVSPPSINMAPKADGFASILAIGRANPKNFIEQSTFPDFFFRVTNTEHMVDLKKKFQRICDKTSIRKRHFIWNEELLTANPSLCTFMGNSLNLRHEVAVREIPKLGAEAATKAIQEWGQPKSFITHLVFCTTSGMDLPGADYQLTQILGLNLDIERVMLHQQGCFLGGTTLRLAKYLAESRKGARVLVVCAETTTEFFRAPSEEHQEDLVTQSLFGDGASALIVGADPHEGARERASFILVSSSQVLLANSAHAITGHVSEGGIKATLHRDVPQIISNNLGKCLEEAFTPLGISDWNSIFWVLHPGGRAILDQVEEKMGLEPEKLLISRHVLLEYGNMSSVCVHFALDEMRKRSSNEGKATTGEGLEWGVLFGFGPGLTIETVVLRSVSIS
modifications: (1)..(394) CAA10514.1

tested on: E. coli derivative strain which overexpressed an acyl-CoA synthetase (fadD) gene and expressed an olivetolic acid cyclase (OAC) from Cannabis sativa; assay: OL, OLA and PDAL production in E. coli from plasmid-expressed Type-III PKS genes; assay type: cell-based; details: OL + OLA + PDAL; gene on plasmid
Method: To test olivetolic acid production in E. coli, strains comprising a putative OLS gene and an OAC gene from C. sativa were inoculated in multi-well plates containing LB supplemented with 1% glucose and appropriate concentrations of antibiotics. After 6 hours of cultivation at 32° C., the cells were transferred with a 10% inoculum to a P-limited seed medium (see Table 2) and cultivated for ˜18 hours at 32° ° C. to reach an OD of 2.0-4.0. The cultures were transferred with a 20% inoculum in a P-minimal medium (see Table 3) supplemented with 2% glucose and appropriate concentrations of antibiotics. After 3 hours of cultivation at 32° C., the culture was spiked with 4 mM hexanoic acid (˜OD 1.5-2.0). The resulting cultures were then harvested at either 3 hours or 21 hours post hexanoic acid spike; a final OD was taken. 300 μL of butyl acetate containing 500 mg/L undecanoic acid was added to each multi-well plate. The plates were then vortexed for 30 minutes at 1500 rpm and centrifuged for 10 minutes at 4500 rpm. 50 μL of organic layer was transferred to a 96-well plate and derivatized with 50 μL of N,O-Bis(trimethylsilyl)trifluoroacetamide (BSTFA). The plate was then incubated at room temperature for 2 hours to allow for complete derivatization. The samples were then run on GC-FID for analytical quantification of olivetolic acid (OLA), olivetol (OL), PDAL, and hexanoic acid.
Olivetol, PDAL, OLA, HTAL, CBGA and combinations thereof were analyzed by LCMS or LCMS/MS methods using C18 reversed phase chromatography coupled to either EXACTIVE™ (ThermoFisher) or QTRAP® 4500 (Sciex) mass spectrometers.
For reversed phase LCMS, compounds were identified by their LC retention times and MRM transitions specific to the compounds. LCMS/MS analysis was conducted on a Shimadzu UHPLC system coupled with AB Sciex QTRAP 4500 mass spectrometer. Agilent Eclipse XDB C18 column (4.6×3.0 mm, 1.8 μm) was used with a 1-min gradient elution at 1 mL/min using water containing 0.1% ammonia acetate as mobile phase A and 90% methanol containing 0.1% ammonia acetate as mobile phase B. The LC column temperature was maintained at 45° C. Negative ionization mode was used for all the analytes.
The genes for 20 Type-III PKS enzymes were codon optimized for E. coli and cloned under control of a constitutive promoter into an expression vector (p15a replicon, carbenicillin resistance marker). The 20 plasmids were transformed into an E. coli derivative strain which overexpressed an acyl-CoA synthetase (fadD) gene and expressed an olivetolic acid cyclase (OAC) from Cannabis sativa.
The in vivo assay procedure and analytical methods were performed as described above.

Molecule	Total
B1	1874 µM
B2	1406 µM
B3	1072 µM
B4	1005 µM
B5	948 µM
B6	468 µM
B7	320 µM
B8	148 µM
B9	61 µM

same assay, conditions: gene on plasmid

Molecule	levels of OLA relative to the E. coli strain with OLS from C. sativa
B1	over two-fold

same assay, conditions: gene on plasmid, constitutive promoter; culture spiked with 4 mM hexanoic acid

Molecule	OL	OLA	PDAL
B1	606 µM	653 µM	615 µM
B2	289 µM	302 µM	815 µM
B3	432 µM	390 µM	250 µM
B4	268 µM	256 µM	481 µM
B5	159 µM	152 µM	638 µM
B6	54 µM	36 µM	378 µM
B7	93 µM	98 µM	129 µM
B8	26 µM	19 µM	102 µM
B9	0 µM	0 µM	61 µM
